Laboratory results: publication doi:10.1101/2025.03.19.644124

Assays:
Assay in all cases: BLI
[1] = target: 6His-PpBRCA2-Cter (amino acids 251 to 391) (Physcomitrium patens)
[2] = target: biotinylated PpBRCA2-BRC1 peptide (Physcomitrium patens)
[3] = target: biotinylated PpBRCA2-BRC2 peptide (Physcomitrium patens)
[4] = target: biotinylated PpBRCA2-BRC4 peptide (Physcomitrium patens)

Kd [1]: 4.3 nM | Kd [2]: 400 nM | Kd [3]: 800 nM | Kd [4]: 400 nM
Substance: recombinant PpRAD51-2, tag-free (natural protein)
